Experimental data reported in US20250075002A1 (BEIGENE SWITZERLAND, published 2025).
Where two headings read alike, the source gives them in different places.

What was measured:
[1] = target: T1, human CD16A (F158) on NK92mi cells (human, UniProt P08637 17-254); assay: flow cytometry on live NK92mi/CD16A 158F cells
T1 construct: NK92mi cells co-transduced with CD16A (F158) and FcRgamma cDNAs; also called NK92mi/CD16A F158

[2] = target: T2, cyno CD16-His6 (cyno, UniProt Q8SPW2 17-208); assay: SPR; VHH-Fc captured on anti-human Fc surface; column head prints 'KD (nM)', koff/kon shows M
T2 construct: Bought ECD fragment; not shown: six-histidine tag (His6)
T2 sequence (Q8SPW2 17-208): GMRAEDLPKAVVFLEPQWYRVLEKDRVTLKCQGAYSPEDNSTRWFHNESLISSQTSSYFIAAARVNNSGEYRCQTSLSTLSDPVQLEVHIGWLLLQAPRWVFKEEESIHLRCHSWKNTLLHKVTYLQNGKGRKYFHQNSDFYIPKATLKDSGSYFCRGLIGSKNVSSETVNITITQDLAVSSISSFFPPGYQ

[3] = target: T1, human CD16A (F158) on NK92mi cells; assay: flow cytometry on NK92mi/CD16A 158F cells
[4] = target: T3, human CD16B (NA1) on NK92mi cells (human, UniProt O75015 17-200); assay: flow cytometry on NK92mi/CD16B (NA1) cells
T3 construct: also called NK92mi/CD16B (NA1); NK92mi/CD16B NA1
T3 chain: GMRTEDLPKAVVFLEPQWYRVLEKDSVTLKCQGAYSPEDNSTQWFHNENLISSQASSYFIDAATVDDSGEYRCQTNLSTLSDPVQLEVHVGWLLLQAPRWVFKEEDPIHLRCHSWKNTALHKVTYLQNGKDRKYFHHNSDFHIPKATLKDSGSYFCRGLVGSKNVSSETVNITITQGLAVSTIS

[5] = target: T4, human CD16B (NA2) on NK92mi cells (human, UniProt O75015 17-200); assay: flow cytometry on live NK92mi/CD16B NA2 cells, 300 nM VHH-Fc
T4 construct: also called NK92mi/CD16B (NA2); NK92mi/CD16B NA2
T4 chain: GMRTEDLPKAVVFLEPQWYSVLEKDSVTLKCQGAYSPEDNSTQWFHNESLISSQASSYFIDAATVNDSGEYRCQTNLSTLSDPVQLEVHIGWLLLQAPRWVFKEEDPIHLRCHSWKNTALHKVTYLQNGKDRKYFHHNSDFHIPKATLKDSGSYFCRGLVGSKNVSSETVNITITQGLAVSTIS

[6] = target: T3, human CD16B (NA1) on NK92mi cells; assay: flow cytometry on live NK92mi/CD16B NA1 cells, 300 nM VHH-Fc
[7] = target: T5, human CD16A-His6 (V158) (human, UniProt P08637 17-208); assay: SPR; VHH-Fc captured on anti-human Fc surface
T5 construct: Bought (Sino Biologics) ECD fragment; also called CD16A 158V; human CD16A (V158); not shown: six-histidine tag (His6)

[8] = target: T6, human CD16A-His6 (F158) (human, UniProt P08637 17-208); assay: SPR; VHH-Fc captured on anti-human Fc surface
T6 construct: Bought ECD fragment; also called human CD16A (F158); not shown: six-histidine tag (His6)

[9] = target: T7, human CD16A (V158) on NK92mi cells (human, UniProt P08637 17-254); assay: flow cytometry on NK92mi/CD16A cells (V158 by paragraph 201)
T7 construct: NK92mi cells co-transduced with CD16A (V158) and FcRgamma cDNAs; also called NK92mi/CD16A V158; NK92mi/CD16A

[10] = target: T2, cyno CD16-His6; assay: SPR; VHH-Fc captured on anti-human Fc surface
[11] = target: T8, human CD16B-His6 (NA2) (human, UniProt O75015 17-200); assay: SPR; VHH-Fc captured on anti-human Fc surface; row head prints 'KD (nM)', taken as M like the rest of the table
T8 construct: Bought ECD fragment; also called CD16B NA2; human CD16B (NA2); not shown: six-histidine tag (His6)
T8 chain: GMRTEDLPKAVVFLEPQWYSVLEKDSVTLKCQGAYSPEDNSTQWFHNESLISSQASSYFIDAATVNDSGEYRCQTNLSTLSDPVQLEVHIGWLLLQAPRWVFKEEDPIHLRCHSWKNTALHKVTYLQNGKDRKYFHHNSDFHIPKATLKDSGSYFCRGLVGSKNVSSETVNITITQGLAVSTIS

[12] = target: T9, human CD16B-His6 (NA1) (human, UniProt O75015 17-200); assay: as above
T9 construct: Bought ECD fragment; also called CD16B NA1; human CD16B (NA1); not shown: six-histidine tag (His6)
T9 chain: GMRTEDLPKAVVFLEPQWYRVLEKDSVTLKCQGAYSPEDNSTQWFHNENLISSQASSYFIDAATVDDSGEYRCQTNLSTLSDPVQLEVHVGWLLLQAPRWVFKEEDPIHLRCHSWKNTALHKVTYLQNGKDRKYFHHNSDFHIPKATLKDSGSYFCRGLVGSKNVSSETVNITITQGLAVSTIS

[13] = target: T5, human CD16A-His6 (V158); assay: SPR; VHH-Fc captured on anti-human Fc surface; row head prints 'KD (nM)', koff/kon shows M
[14] = target: T6, human CD16A-His6 (F158); assay: as above
[15] = target: T5, human CD16A-His6 (V158); assay: as above; remark: listed apart in the source
[16] = target: T6, human CD16A-His6 (F158); assay: as above; remark: listed apart in the source
[17] = target: T1, human CD16A (F158) on NK92mi cells; assay: flow cytometry, biotinylated VHH-Fc on NK92mi/CD16A 158F cells, without human IgG1 (CB6)
[18] = target: T5, human CD16A-His6 (V158); assay: SPR; VHH-Fc captured on anti-human Fc surface; remark: listed apart in the source
[19] = target: T6, human CD16A-His6 (F158); assay: SPR; VHH-Fc captured on anti-human Fc surface; remark: listed apart in the source
[20] = target: T3, human CD16B (NA1) on NK92mi cells; assay: flow cytometry, NK92mi/CD16B (NA1) against NK92mi/CD16A cells (weaker on CD16B)
[21] = target: T8, human CD16B-His6 (NA2); assay: SPR; VHH-Fc captured on anti-human Fc surface; row head prints 'KD (nM)', taken as M like the rest of the table
[22] = target: T9, human CD16B-His6 (NA1); assay: as above
[23] = target: T1, human CD16A (F158) on NK92mi cells; assay: flow cytometry, biotinylated VHH-Fc on NK92mi/CD16A 158F cells, with 10 mg/ml human IgG1 CB6 as competitor
[24] = target: T4, human CD16B (NA2) on NK92mi cells; assay: flow cytometry on NK92mi/CD16B (NA2) cells

B1: BG523P (VHH-Fc) (VHH)
chain: QVQLVESGGGVVQPGGSLTLSCEASGRTFGSYAVGWFRQALGRGREFVAAIRRSDGTTDYVDSVKGRFTISRDNAKNTVYLQMNSLKPEDTAVYYCAASDSDYEPLGDYWGQGTQVTVSSEPKSSDKTHTCPPCPAPPAAGPSVFLFPPKPKDTLMISRTPEVTCVVVDVSHEDPEVKFNWYVDGVEVHNAKTKPREEQYNSTYRVVSVLTVLHQDWLNGKEYKCKVSNKALAAPIEKTISKAKGQPREPQVYTLPPSREEMTKNQVSLTCLVKGFYPSDIAVEWESNGQPENNYKTTPPVLDSDGSFFLYSKLTVDKSRWQQGNVFSCSVMHEALHNHYTQKSLSLSPGK
notes: Alpaca anti-CD16A VHH fused to a C-terminal human IgG1 mf Fc tag (VHH-Fc); also called parental clone
Binder B1 has an EC50 [1] of 15.1 nM, a Kd [2] of 0.289 nM and an EC50 [3] of 10.6 nM. The “EMAX (MFI)” value [3] was 9920 MFI, the EC50 [4] was 9.52 µg/mL and the “Binding signal at 300 nM (MFI)” value [5] was 65 MFI. For the same binder, the “Binding signal at 300 nM (MFI)” value [6] was 577 MFI, the koff [7] was 6.22e-05 s⁻¹ and the kon [7] was 280000 M⁻¹ s⁻¹. The koff [8] was 7.88e-05 s⁻¹, the kon [8] was 224000 M⁻¹ s⁻¹ and the EC50 [9] was 0.242 µg/mL. The koff [10] was 8.09e-05 s⁻¹, the kon [10] was 280000 M⁻¹ s⁻¹ and the Kd [11] was 4260 nM. For the same binder, the Kd [12] was 1700 nM, the Kd [13] was 0.222 nM and the Kd [14] was 0.353 nM. For the same binder, the Kd [15] was 0.408 nM, the Kd [16] was 0.402 nM and the EC50 [17] was 1.19 nM. For the same binder, the “EMAX (MFI)” value [17] was 22100 MFI, the koff [18] was 0.000113 s⁻¹ and the kon [18] was 276000 M⁻¹ s⁻¹. For the same binder, the koff [19] was 0.000128 s⁻¹, the kon [19] was 319000 M⁻¹ s⁻¹ and the “fold change of EC50 against CD16A binding” value [20] was roughly 40 fold. It also gave a Kd [21] of 4950 nM, a Kd [22] of 1760 nM and an EC50 [23] of 6.57 nM. For the same binder, the “EMAX (MFI)” value [23] was 21300 MFI and the EC50 [24] was 28.9 µg/mL.
